We go through seven molecules from patent US20050100554A1 (published 2005).

B1: Human papillomavirus 11 E2 (other)
chain: MEAIAKRLDACQDQLLELYEENSIDIHKHIMHWKCIRLESVLLHKAKQMGLSHIGLQVVPPLTVSETKGHNAIEMQMHLESLAKTQYGVEPWTLQDTSYEMWLTPPKRCFKKQGNTVEVKFDGCEDNVMEYVVWTHIYLQDNDSWVKVTSSVDAKGIYYTCGQFKTYYVNFNKEAQKYGSTNHWEVCYGSTVICSPASVSSTVREVSIAEPTTYTPAQTTAPTVSACTTEDGVSAPPRKRARGPSTNNTLCVANIRSVDSTINNIVTDNYNKHQRRNNCHSAATPIVQLQGDSNCLKCFRYRLNDKYKHLFELASSTWHWASPEAPHKNAIVTLTYSSEEQRQQFLNSVKIPPTIRHKVGFMSLHLL
notes: also called HPV 11 E2; cbe_250781

The target of one test is T1, KRT8 (human, UniProt P05787 1-483).
T1 construct: also called cbe_4269571
T1 sequence: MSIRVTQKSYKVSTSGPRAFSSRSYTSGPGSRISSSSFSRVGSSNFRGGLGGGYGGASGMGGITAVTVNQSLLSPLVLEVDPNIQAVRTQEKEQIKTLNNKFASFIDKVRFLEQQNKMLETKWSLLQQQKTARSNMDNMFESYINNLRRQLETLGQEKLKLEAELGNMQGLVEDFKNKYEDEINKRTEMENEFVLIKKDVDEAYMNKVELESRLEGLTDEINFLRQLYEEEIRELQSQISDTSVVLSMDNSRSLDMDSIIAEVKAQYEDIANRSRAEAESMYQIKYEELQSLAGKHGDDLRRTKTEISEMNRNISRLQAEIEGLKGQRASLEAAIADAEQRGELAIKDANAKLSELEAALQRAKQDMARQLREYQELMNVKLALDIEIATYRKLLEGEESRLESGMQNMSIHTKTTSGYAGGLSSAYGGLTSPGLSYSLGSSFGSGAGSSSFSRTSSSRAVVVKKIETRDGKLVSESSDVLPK
Description: Y2H; INT ID 16.

The target of another test is T2, CD164 (human, UniProt Q04900 24-197).
T2 construct: also called cbe_3929669
Description: Y2H; INT ID 31.

Test [1] has as its target T3, rho/rac guanine nucleotide exchange factor (GEF) 2 (human, UniProt Q92974 28-986).
T3 construct: also called ARHGEF2; cbe_3694420
T3 sequence: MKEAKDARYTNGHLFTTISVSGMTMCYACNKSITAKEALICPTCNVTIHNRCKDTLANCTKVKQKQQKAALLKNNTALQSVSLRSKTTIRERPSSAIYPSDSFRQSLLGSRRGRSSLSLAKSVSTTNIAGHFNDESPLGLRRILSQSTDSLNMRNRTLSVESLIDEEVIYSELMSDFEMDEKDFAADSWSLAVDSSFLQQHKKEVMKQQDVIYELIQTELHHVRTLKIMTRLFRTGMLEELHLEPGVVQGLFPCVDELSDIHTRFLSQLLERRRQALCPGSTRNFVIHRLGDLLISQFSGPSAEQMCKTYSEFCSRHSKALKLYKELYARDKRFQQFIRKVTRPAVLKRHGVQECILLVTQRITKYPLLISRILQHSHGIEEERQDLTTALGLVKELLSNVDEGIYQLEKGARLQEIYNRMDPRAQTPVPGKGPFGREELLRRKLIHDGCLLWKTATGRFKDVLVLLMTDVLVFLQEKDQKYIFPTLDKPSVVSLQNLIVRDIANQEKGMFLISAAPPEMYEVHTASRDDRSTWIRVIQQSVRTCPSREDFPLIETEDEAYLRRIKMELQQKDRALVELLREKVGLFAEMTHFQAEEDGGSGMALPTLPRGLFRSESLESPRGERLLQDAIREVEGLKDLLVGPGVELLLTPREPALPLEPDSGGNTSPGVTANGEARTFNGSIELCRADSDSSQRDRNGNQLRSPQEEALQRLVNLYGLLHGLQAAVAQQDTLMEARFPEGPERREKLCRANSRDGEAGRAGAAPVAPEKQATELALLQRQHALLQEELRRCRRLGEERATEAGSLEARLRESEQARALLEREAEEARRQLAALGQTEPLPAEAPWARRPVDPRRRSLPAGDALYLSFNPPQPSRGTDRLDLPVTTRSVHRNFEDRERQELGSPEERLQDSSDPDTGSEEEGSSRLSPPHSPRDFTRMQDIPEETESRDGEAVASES
Description: Y2H; INT ID 30.

For a further test, the target named is T4, GPRK5 (human, UniProt P34947 1-590).
T4 construct: also called cbe_2541164
Description: Y2H; INT ID 27.

For the next test, the target named is T5, nucleoporin 214 kDa (human, UniProt P35658 2-2090).
T5 construct: also called NUP214; cbe_3590661
Description: Y2H; INT ID 29.

Another test addresses T6, MAPK9 (human, UniProt P45984 1-424).
T6 construct: also called cbe_4175362
Kind of test: Y2H; INT ID 32.

A further test concerns the target T7, MT2A (human, UniProt P02795 1-61).
T7 construct: also called cbe_862174
Kind of test: Y2H; INT ID 5.

Test [2] addresses T8, steroid receptor RNA activator 1 (human, UniProt Q9HD15 1-224).
T8 construct: also called SRA1; cbe_4344185
T8 sequence: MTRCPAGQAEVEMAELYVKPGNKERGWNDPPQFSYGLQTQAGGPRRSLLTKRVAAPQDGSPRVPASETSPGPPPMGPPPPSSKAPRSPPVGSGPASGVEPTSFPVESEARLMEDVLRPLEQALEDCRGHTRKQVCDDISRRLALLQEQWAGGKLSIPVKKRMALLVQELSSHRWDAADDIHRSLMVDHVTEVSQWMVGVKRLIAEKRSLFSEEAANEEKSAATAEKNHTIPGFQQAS
Description: Y2H; INT ID 7.

The next test concerns the target T9, SCO1 (human, UniProt O75880 68-301).
T9 construct: also called cbe_1699351
T9 sequence: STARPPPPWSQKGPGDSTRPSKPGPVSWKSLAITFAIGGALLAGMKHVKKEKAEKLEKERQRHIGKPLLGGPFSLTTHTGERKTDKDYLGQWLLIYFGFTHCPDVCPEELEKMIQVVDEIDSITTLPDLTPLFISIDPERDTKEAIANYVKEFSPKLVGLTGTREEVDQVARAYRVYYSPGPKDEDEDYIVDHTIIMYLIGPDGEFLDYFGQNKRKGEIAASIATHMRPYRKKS
Kind of test: Y2H; INT ID 6.

Test [3] concerns the target B1. Description: Y2H; INT ID 14.
Test [4] has as its target T10, Human Papillomavirus 1a L1 (Human Papillomavirus 1a, UniProt P03099 1-508).
T10 construct: also called HPV 1a L1; cbe_252016
T10 sequence: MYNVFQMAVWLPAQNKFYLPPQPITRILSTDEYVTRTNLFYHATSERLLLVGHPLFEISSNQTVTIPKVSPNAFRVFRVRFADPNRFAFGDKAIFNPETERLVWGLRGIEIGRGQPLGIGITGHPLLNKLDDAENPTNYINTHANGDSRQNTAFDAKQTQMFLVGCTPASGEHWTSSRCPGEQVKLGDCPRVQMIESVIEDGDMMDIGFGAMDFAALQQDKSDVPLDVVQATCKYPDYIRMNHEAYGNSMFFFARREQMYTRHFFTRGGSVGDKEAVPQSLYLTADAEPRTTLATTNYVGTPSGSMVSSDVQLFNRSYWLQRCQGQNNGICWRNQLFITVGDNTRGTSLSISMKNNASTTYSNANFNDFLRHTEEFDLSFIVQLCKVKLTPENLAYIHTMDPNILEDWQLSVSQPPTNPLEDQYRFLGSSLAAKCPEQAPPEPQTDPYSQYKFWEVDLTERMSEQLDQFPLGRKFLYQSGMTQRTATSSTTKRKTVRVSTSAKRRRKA
Description: Y2H; INT ID 438.

Test [5] deals with T10, Human Papillomavirus 1a L1. Kind of test: Y2H; INT ID 439.
For test [6] the target is unchanged. Description: Y2H; INT ID 440.

T4 sequence (P34947 whole entry): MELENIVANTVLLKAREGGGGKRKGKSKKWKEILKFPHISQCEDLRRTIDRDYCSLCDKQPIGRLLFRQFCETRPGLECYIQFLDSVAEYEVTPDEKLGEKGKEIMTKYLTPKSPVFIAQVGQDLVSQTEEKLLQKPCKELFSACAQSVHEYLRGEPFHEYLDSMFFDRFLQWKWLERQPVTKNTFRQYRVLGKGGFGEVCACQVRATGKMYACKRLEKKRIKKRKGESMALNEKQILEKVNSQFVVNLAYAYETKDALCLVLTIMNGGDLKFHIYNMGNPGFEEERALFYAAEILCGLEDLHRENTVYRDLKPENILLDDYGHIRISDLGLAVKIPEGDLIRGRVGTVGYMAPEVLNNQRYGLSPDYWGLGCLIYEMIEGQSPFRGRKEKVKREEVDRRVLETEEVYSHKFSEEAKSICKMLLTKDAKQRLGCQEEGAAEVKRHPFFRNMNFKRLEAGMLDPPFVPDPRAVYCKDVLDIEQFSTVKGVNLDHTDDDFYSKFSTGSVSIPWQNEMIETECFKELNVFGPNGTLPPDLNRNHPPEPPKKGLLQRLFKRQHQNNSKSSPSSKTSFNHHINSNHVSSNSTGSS
T2 sequence (Q04900 24-197 limits assumed): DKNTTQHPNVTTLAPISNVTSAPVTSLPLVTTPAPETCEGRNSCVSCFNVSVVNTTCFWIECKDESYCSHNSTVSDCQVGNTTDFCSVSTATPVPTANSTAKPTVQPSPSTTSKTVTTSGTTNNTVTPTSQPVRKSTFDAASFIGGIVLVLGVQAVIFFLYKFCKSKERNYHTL
T7 sequence (P02795 whole entry): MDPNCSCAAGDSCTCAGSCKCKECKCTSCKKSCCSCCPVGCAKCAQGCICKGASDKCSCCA
T5 sequence (P35658 2-2090 limits assumed): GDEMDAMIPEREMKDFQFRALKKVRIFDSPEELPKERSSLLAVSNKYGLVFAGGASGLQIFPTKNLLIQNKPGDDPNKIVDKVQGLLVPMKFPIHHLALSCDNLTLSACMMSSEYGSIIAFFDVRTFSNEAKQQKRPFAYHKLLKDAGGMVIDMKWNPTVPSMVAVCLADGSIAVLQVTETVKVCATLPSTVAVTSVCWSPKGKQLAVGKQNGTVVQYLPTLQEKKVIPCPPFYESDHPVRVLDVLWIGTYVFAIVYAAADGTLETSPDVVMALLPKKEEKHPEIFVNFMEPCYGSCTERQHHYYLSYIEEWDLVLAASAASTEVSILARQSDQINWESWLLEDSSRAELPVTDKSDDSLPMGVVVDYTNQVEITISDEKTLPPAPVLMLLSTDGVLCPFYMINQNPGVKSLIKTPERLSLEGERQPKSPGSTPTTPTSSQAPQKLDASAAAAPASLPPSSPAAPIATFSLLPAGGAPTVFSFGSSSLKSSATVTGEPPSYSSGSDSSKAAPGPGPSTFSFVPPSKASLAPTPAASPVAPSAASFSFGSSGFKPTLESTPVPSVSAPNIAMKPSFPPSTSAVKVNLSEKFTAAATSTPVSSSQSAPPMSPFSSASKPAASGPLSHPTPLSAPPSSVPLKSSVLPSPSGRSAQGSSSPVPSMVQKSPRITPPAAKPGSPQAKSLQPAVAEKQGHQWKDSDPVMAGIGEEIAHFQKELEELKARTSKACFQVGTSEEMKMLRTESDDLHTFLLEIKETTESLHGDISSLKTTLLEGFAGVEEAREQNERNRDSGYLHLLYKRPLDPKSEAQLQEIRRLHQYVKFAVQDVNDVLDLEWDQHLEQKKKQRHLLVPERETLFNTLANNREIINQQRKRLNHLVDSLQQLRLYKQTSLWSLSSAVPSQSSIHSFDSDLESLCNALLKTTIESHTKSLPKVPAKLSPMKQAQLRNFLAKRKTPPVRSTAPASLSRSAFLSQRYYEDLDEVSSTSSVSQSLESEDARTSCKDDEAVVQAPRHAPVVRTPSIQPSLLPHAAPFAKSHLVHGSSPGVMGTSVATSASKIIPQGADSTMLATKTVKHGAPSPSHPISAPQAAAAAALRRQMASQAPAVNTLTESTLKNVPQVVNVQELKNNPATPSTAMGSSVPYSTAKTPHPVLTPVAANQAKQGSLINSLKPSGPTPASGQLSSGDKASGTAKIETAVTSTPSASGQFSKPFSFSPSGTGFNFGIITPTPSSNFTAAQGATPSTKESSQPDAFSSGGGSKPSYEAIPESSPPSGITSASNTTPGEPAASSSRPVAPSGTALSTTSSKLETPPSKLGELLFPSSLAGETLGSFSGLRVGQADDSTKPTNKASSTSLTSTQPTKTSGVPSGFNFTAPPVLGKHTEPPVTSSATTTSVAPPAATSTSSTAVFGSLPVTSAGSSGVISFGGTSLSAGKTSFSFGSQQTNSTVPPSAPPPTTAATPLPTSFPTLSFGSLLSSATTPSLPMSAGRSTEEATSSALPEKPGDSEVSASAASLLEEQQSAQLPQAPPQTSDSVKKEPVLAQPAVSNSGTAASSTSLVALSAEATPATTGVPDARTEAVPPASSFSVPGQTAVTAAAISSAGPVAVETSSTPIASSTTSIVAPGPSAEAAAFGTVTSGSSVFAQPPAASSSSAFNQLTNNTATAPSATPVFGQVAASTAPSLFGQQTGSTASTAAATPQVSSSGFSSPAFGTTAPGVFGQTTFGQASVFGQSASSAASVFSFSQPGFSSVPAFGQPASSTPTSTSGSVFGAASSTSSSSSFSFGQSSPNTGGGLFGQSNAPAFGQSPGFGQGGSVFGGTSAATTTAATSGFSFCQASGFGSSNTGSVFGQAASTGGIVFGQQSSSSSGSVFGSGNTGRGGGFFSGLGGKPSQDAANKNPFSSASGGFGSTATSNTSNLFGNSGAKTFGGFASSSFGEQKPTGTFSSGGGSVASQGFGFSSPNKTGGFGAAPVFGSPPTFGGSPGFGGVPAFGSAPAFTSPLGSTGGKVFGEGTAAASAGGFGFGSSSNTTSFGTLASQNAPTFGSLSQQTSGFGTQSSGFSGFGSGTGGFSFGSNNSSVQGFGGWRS

For the molecule B1, the binding result in the test with KRT8 is given as “binds”.

B2: Human papillomavirus 11 E6 (other)
chain: MESKDASTSATSIDQLCKTFNLSLHTLQIQCVFCRNALTTAEIYAYAYKNLKVVWRDNFPFAACACCLELQGKINQYRHFNYAAYAPTVEEETNEDILKVLIRCYLCHKPLCEIEKLKHILGKARFIKLNNQWKGRCLHCWTTCMEDLLP
notes: also called HPV 11 E6; cbe_250808
B2: the binding result (with CD164; in test [1]; with GPRK5; with nucleoporin 214 kDa; with MAPK9) was “binds” throughout.

B3: Human papillomavirus 11 E4 (other)
chain: MVVPIIGKYVMAAQLYVLLHLYLALYEKYPLLNLLHTPPHRPPPLQCPPAPRKTACRRRLGSEHVDRPLTTPCVWPTSDPWTVQSTTSSLTITTSTKEGTTVTVQLRL
notes: also called HPV 11 E4; cbe_250777
Regarding B3, the binding result (with MT2A; in test [2]; with SCO1) was “binds” throughout.

B4: hypothetical gene supported by AL449243 (other)
chain: MASGAARWLVLAPVRSGALRSGPSLRKDGDVSAAWSGSGRSLVPSGSVIVTRSGAILPKPVKMSFGLLRVFSIVIPFLYVGTLISKNFAALLEEHDIFVPEDDDDDD
notes: also called Hs.306083; LOC91689
For B4, the binding result in test [3] is “binds”.

B5: isovaleryl Coenzyme A dehydrogenase (enzyme)
chain: HSLLPVDDAINGLSEEQRQLRQTMAKFLQEHLAPKAQEIDRSNEFKNLREFWKQLGNLGVLGITAPVQYGGSGLGYLEHVLVMEEISRASGAVGLSYGAHSNLCINQLVRNGNEAQKEKYLPKLISGEYIGALAMSEPNAGSDVVSMKLKAEKKGNHYILNGNKFWITNGPDADVLIVYAKTDLAAVPASRGITAFIVEKGMPGFSTSKKLDKLGMRGSNTCELIFEDCKIPAANILGHENKGVYVLMSGLDLERLVLAGGPLGLMQAVLDHTIPYLHVREAFGQKIGHFQLMQGKMADMYTRLMACRQYVYNVAKACDEGHCTAKDCAGVILYSAECATQVALDGIQCFGGNGYINDFPMGRFLRDAKLYEIGAGTSEVRRLVIGRAFNADFH
notes: also called IVD; cbe_3800240
For B5, the binding result in [4] is “binds”.

B6: NR1H2 (receptor)
chain: MSSPTTSSLDTPLPGNGPPQPGAPSSSPTVKEEGPEPWPGGPDPDVPGTDEASSACSTDWVIPDPEEEPERKRKKGPAPKMLGHELCRVCGDKASGFHYNVLSCEGCKGFFRRSVVRGGARRYACRGGGTCQMDAFMRRKCQQCRLRKCKEAGMREQCVLSEEQIRKKKIRKQQQESQSQSQSPVGPQGSSSSASGPGASPGGSEAGSQGSGEGEGVQLTAAQELMIQQLVAAQLQCNKRSFSDQPKVTPWPLGADPQSRDARQQRFAHFTELAIISVQEIVDFAKQVPGFLQLGREDQIALLKASTIEIMLLETARRYNHETECITFLKDFTYSKDDFHRAGLQVEFINPIFEFSRAMRRLGLDDAEYALLIAINIFSADRPNVQEPGRVEALQQPYVEALLSYTRIKRPQDQLRFPRMLMKLVSLRTLSSVHSEQVFALRLQDKKLPPLLSEIWDVHE
notes: also called cbe_4268726
For the molecule B6, the binding result in test [5] is “binds”.

B7: SCGB1A1 (other)
chain: EICPSFQRVIETLLMDTPSSYEAAMELFSPDQDMREAGAQLKKLVDTLPQKPRESIIKLMEKIAQSSLCN
notes: also called cbe_4296923
Turning to B7, the binding result in [6] is “binds”.
